Data from publication PMC11909895.

What was measured:
[1] = target: beta-Nrxn1ΔC, C-terminal truncated mutant beta-Nrxn1 (-AS4); assay: co-IP; HA antibody (clone 3F10) and Protein-G Sepharose from striatum lysates of adult control and beta-Nrxn1ΔC mice; lysis buffer 20 mM Tris-HCl pH 7.5, 100 mM NaCl, 5 mM MgCl2, 5 mM CaCl2, 1% Triton X-100; blots for Nlgn1, Nlgn2, Nlgn3, LRRTM2
[2] = target: beta-Nrxn1ΔC, C-terminal truncated mutant beta-Nrxn1 (-AS4); assay: co-IP; HA antibody (clone 3F10) and Protein-G Sepharose from cortex lysates of adult control and beta-Nrxn1ΔC mice (untreated, or DOX 14 days then 30 days re-expression); lysis buffer 20 mM Tris-HCl pH 7.5, 100 mM NaCl, 5 mM MgCl2, 5 mM CaCl2, 1% Triton X-100; blots for Nlgn1, Nlgn2, Nlgn3, LRRTM2

- Nlgn1 levels in the co-immunoprecipitates as percentage of total Nlgn1 in the initial lysates [1]: 1.74%
- Nlgn1 levels in the co-immunoprecipitates as percentage of total Nlgn1 in the initial lysates [2]: 5.01%
Substance: Nlgn1 (neuroligin-1) (from UniProt Q99K10 46-843) (natural protein)
